Experimental data reported in article PMC11139282, “Structure and activity of the septal peptidoglycan hydrolysis machinery crucial for bacterial cell division” (PLOS Biology, 2024).
Values belong to the binder of their own block, whether it stands above or below them.

Experiments:
EnvC_(35-420) [1] = target: T1, EnvC_(35-420) (E. coli K-12, UniProt P37690 35-419); test: pull-down + SEC; purified FtsE^E163QX or FtsX incubated with EnvC(35-420)-Strep at a molar ratio of 1:1.5, moved into PMAL-C8; Strep column to remove unbound FtsEX or FtsX, then Superdex 200 in 20 mM Tris pH 8.0, 300 mM NaCl (1 mM ATP for FtsE^E163QX); peak validated by SDS-PAGE; settings: both partners purified
T1 construct: Only part of the coiled-coil domain is modelled in the cryo-EM structure; also called ecEnvC; source: E. coli C43(DE3), purified (Ni-NTA, SEC, TEV, Ni-NTA, SEC); not shown: His8, N-terminal, cleaved; SUMO, N-terminal, cleaved; Strep tag II, C-terminal, kept
T1 sequence (looked up): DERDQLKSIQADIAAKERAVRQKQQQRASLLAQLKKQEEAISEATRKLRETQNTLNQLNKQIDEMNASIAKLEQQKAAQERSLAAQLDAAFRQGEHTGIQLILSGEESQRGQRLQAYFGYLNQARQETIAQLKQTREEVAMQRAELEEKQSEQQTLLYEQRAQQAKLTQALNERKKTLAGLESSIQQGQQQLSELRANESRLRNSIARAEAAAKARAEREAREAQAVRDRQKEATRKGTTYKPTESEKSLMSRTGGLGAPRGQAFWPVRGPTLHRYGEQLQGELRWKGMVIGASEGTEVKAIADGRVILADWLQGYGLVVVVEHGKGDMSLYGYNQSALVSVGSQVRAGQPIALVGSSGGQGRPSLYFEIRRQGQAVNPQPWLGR

[2] = target: the molecule itself; test: cryo-EM structure; ATP-bound FtsE^E163QX^Δ4-18-EnvC(35-420) reconstituted in PMAL-C8, about 1 mg/ml, 3.11 Å
EnvC_(35-420) [3] = target: T1, EnvC_(35-420); test: as above; settings: both partners purified

binding result (EnvC_(35-420) [1]): binds
B1: FtsX (purified alone) (natural protein, E. coli K-12, UniProt P0AC30 1-352, looked up)
chain: MNKRDAINHIRQFGGRLDRFRKSVGGSGDGGRNAPKRAKSSPKPVNRKTNVFNEQVRYAFHGALQDLKSKPFATFLTVMVIAISLTLPSVCYMVYKNVNQAATQYYPSPQITVYLQKTLDDDAAAGVVAQLQAEQGVEKVNYLSREDALGEFRNWSGFGGALDMLEENPLPAVAVVIPKLDFQGTESLNTLRDRITQINGIDEVRMDDSWFARLAALTGLVGRVSAMIGVLMVAAVFLVIGNSVRLSIFARRDSINVQKLIGATDGFILRPFLYGGALLGFSGALLSLILSEILVLRLSSAVAEVAQVFGTKFDINGLSFDECLLLLLVCSMIGWVAAWLATVQHLRHFTPE
notes: FtsX, E. coli K-12; The plasmid section describes pET28a-ftsX (N-terminal 8xHis); the purification section names pSUMO-ftsX (His8-SUMO), tag not removed; Whether SUMO stood on the protein is open; not shown: His8, N-terminal, kept

B2: FtsE^E163Q (natural protein, E. coli K-12, UniProt P0A9R7 1-222, looked up)
chain: MIRFEHVSKAYLGGRQALQGVTFHMQPGEMAFLTGHSGAGKSTLLKLICGIERPSAGKIWFSGHDITRLKNREVPFLRRQIGMIFQDHHLLMDRTVYDNVAIPLIIAGASGDDIRRRVSAALDKVGLLDKAKNFPIQLSGGEQQRVGIARAVVNKPAVLLADQPTGNLDDALSEGILRLFEEFNRVGVTVLMATHDINLISRRSYRMLTLSDGHLHGGVGHE
notes: The pSUMO plasmid adds an N-terminal His8-SUMO-TEV site, removed by TEV; Two copies stand in the FtsEX complex; also called ecFtsE^E163Q; not shown: His8 (chain inferred: first gene of pSUMO-ftsEX), N-terminal, cleaved; SUMO (chain inferred: first gene of pSUMO-ftsEX), N-terminal, cleaved
binding result [2]: binds

binding result (EnvC_(35-420) [3]): binds
B3: FtsX^Δ4–18 (natural protein, E. coli K-12, UniProt P0AC30 1-352, looked up)
chain: MNKRFRKSVGGSGDGGRNAPKRAKSSPKPVNRKTNVFNEQVRYAFHGALQDLKSKPFATFLTVMVIAISLTLPSVCYMVYKNVNQAATQYYPSPQITVYLQKTLDDDAAAGVVAQLQAEQGVEKVNYLSREDALGEFRNWSGFGGALDMLEENPLPAVAVVIPKLDFQGTESLNTLRDRITQINGIDEVRMDDSWFARLAALTGLVGRVSAMIGVLMVAAVFLVIGNSVRLSIFARRDSINVQKLIGATDGFILRPFLYGGALLGFSGALLSLILSEILVLRLSSAVAEVAQVFGTKFDINGLSFDECLLLLLVCSMIGWVAAWLATVQHLRHFTPE
notes: FtsX, E. coli K-12, with residues 4-18 deleted; The results call the cryo-EM sample FtsE^E163QX; the methods say that the grids held FtsE^E163QX^Δ4-18; also called ecFtsX
binding result [2]: binds
